Publication PMC6965034, “PAK Kinases Target Sortilin and Modulate Its Sorting” (Molecular and Cellular Biology, 2019)

Molecular target: T1, GST-tagged PAK1 (Y270-H545) (human, UniProt Q13153-1 270-545)
T1 construct: human PAK1 C terminus with the entire kinase domain, residues Y270-H545; vector pGEX4T1; also called GST-PAK1; GST-PAK1 kinase domain; source: E. coli BL21, purified; not shown: GST, N-terminal, kept
Experiment: ITC; 25 μM GST-PAK1 in the cell titrated with 100 μM sortilin-cd or peptide in 28 steps of 10 μl at 34°C; 100 mM NaCl, 50 mM Tris-HCl pH 7.5 (pH 7.4 in the results); one set of sites model
Settings: both partners purified

T1 sequence (Q13153 270-545): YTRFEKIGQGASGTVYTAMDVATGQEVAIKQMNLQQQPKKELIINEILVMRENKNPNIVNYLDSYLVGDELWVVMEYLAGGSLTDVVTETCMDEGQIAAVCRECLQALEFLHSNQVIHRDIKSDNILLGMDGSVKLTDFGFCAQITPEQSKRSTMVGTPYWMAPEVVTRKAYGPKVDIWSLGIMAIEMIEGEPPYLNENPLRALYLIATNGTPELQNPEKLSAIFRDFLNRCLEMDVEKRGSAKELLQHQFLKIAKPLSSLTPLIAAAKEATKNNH

Kd: ~2000 nM
B1: complete sortilin cytoplasmic domain (K779-E831), GST tag removed (domain or fragment, human, UniProt Q99523-1 779-831, looked up)
chain: KKYVCGGRFLVHRYSVLQQHAEANGVDGVDALDTASHTNKSGYHDDSDEDLLE
notes: human sortilin cytoplasmic domain K779-E831 (K1-E53 of the cytoplasmic domain); vector pGEX4T1; also called sortilin-cd; wt sortilin-cd; source: E. coli BL21, purified, GST tag removed by thrombin cleavage; not shown: GST, N-terminal, cleaved
